From US20220040297A1 (Chugai, published 2022)
Positions count from the first letter of the chain named. In names and notes the source's numbering stands. Blank lines part the entries; values can stand above or below the binder they belong to.

Molecular target: T1, CD3ε homodimer protein (human, UniProt P07766 23-126, limits assumed, sulfo-tag or biotin label in some ECL assays)
T1 construct: also called human CD3ε homodimer protein; CD3 (CD3ε)
Assay: SPR, CD3ε homodimer on chip;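 note: biacore SPR with antibody variants flowed as analyte over amine-coupled CD3ε homodimer on a CM chip, bound amount of each single-residue H chain variant over that of parent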

T1 sequence (P07766 23-126 limits assumed): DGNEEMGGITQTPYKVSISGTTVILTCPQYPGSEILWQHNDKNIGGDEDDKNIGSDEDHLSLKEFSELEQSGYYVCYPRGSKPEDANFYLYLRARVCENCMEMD

B3: CE115HA000 N31Y (antibody, name in Kabat numbering, V domains shown)
VH: QVQLVESGGGVVQPGRSLRLSCAASGFTFSYAWMHWVRQAPGKGLEWVAQIKAKSNNYATYYAESVKGRFTISRDDSKNSLYLQMNSLKTEDTAVYYCRYVHYGAYYGVDAWGQGTTVTVSS
VL: DIVMTQSPLSLPVTPGEPASISCRSSQSLVHSNRNTYLHWYQQKPGQAPRLLIYKVSNRFSGVPDRFSGSGSGTDFTLKISRVEAEDVGVYYCGQGTQVPYTFGQGTKLEIK
- ratio of amounts bound vs CE115HA000: 0.64

B7: CE115HA000 N31W (antibody, name in Kabat numbering, V domains shown)
VH: B3 VH with Y31W
VL: B3 VL
- ratio of amounts bound vs CE115HA000: 0.63

B8: CE115HA000 N53D (antibody, name in Kabat numbering, V domains shown)
VH: B3 VH with Y31N, N56D
VL: B3 VL
- ratio of amounts bound vs CE115HA000: 0.39

B9: CE115HA000 N53H (antibody, name in Kabat numbering, V domains shown)
VH: B3 VH with Y31N, N56H
VL: B3 VL
- ratio of amounts bound vs CE115HA000: 0.76

B11: CE115HA000 K75T (antibody, name in Kabat numbering, V domains shown)
VH: B3 VH with Y31N, K78T
VL: B3 VL
- ratio of amounts bound vs CE115HA000: 9.34

B12: CE115HA000 K64S (antibody, name in Kabat numbering, V domains shown)
VH: B3 VH with Y31N, K67S
VL: B3 VL
- ratio of amounts bound vs CE115HA000: 0.84

B17: CE115HA000 L78I (antibody, name in Kabat numbering, V domains shown)
VH: B3 VH with Y31N, L81I
VL: B3 VL
- ratio of amounts bound vs CE115HA000: 1.34

B20: CE115HA000 N53I (antibody, name in Kabat numbering, V domains shown)
VH: B3 VH with Y31N, N56I
VL: B3 VL
- ratio of amounts bound vs CE115HA000: 0.68

B21: CE115HA000 N31K (antibody, name in Kabat numbering, V domains shown)
VH: B3 VH with Y31K
VL: B3 VL
- ratio of amounts bound vs CE115HA000: 1.01

B22: CE115HA000 N53K (antibody, name in Kabat numbering, V domains shown)
VH: B3 VH with Y31N, N56K
VL: B3 VL
- ratio of amounts bound vs CE115HA000: 0.78

B23: CE115HA000 K64Q (antibody, name in Kabat numbering, V domains shown)
VH: B3 VH with Y31N, K67Q
VL: B3 VL
- ratio of amounts bound vs CE115HA000: 0.89

B24: CE115HA000 N31A (antibody, name in Kabat numbering, V domains shown)
VH: B3 VH with Y31A
VL: B3 VL
- ratio of amounts bound vs CE115HA000: 0.5

B26: CE115HA000 N53G (antibody, name in Kabat numbering, V domains shown)
VH: B3 VH with Y31N, N56G
VL: B3 VL
- ratio of amounts bound vs CE115HA000: 0.5

B29: CE115HA000 N53Q (antibody, name in Kabat numbering, V domains shown)
VH: B3 VH with Y31N, N56Q
VL: B3 VL
- ratio of amounts bound vs CE115HA000: 1.1

B30: CE115HA000 K64E (antibody, name in Kabat numbering, V domains shown)
VH: B3 VH with Y31N, K67E
VL: B3 VL
- ratio of amounts bound vs CE115HA000: 0.74

B32: CE115HA000 K52bY (antibody, name in Kabat numbering, V domains shown)
VH: B3 VH with Y31N, K54Y
VL: B3 VL
- ratio of amounts bound vs CE115HA000: 0.74

Continued, values first:

- ratio of amounts bound vs CE115HA000: 1.11
B1: CE115HA000 K52bR (antibody, name in Kabat numbering, V domains shown)
VH: B3 VH with Y31N, K54R
VL: B3 VL

- ratio of amounts bound vs CE115HA000: 0.37
B2: CE115HA000 N31D (antibody, name in Kabat numbering, V domains shown)
VH: B3 VH with Y31D
VL: B3 VL

- ratio of amounts bound vs CE115HA000: 0.49
B4: CE115HA000 N31Q (antibody, name in Kabat numbering, V domains shown)
VH: B3 VH with Y31Q
VL: B3 VL

- ratio of amounts bound vs CE115HA000: 0.83
B5: CE115HA000 N53S (antibody, name in Kabat numbering, V domains shown)
VH: B3 VH with Y31N, N56S
VL: B3 VL

- ratio of amounts bound vs CE115HA000: 0.88
B6: CE115HA000 N53W (antibody, name in Kabat numbering, V domains shown)
VH: B3 VH with Y31N, N56W
VL: B3 VL

- ratio of amounts bound vs CE115HA000: 0.39
B10: CE115HA000 N31G (antibody, name in Kabat numbering, V domains shown)
VH: B3 VH with Y31G
VL: B3 VL

- ratio of amounts bound vs CE115HA000: 0.72
B13: CE115HA000 K64D (antibody, name in Kabat numbering, V domains shown)
VH: B3 VH with Y31N, K67D
VL: B3 VL

- ratio of amounts bound vs CE115HA000: 0.7
B14: CE115HA000 N53A (antibody, name in Kabat numbering, V domains shown)
VH: B3 VH with Y31N, N56A
VL: B3 VL

- ratio of amounts bound vs CE115HA000: 0.81
B15: CE115HA000 N31S (antibody, name in Kabat numbering, V domains shown)
VH: B3 VH with Y31S
VL: B3 VL

- ratio of amounts bound vs CE115HA000: 0.68
B16: CE115HA000 K52bS (antibody, name in Kabat numbering, V domains shown)
VH: B3 VH with Y31N, K54S
VL: B3 VL

- ratio of amounts bound vs CE115HA000: 0.68
B18: CE115HA000 N31H (antibody, name in Kabat numbering, V domains shown)
VH: B3 VH with Y31H
VL: B3 VL

- ratio of amounts bound vs CE115HA000: 1.14
B19: CE115HA000 N31R (antibody, name in Kabat numbering, V domains shown)
VH: B3 VH with Y31R
VL: B3 VL

- ratio of amounts bound vs CE115HA000: 0.62
B25: CE115HA000 N31F (antibody, name in Kabat numbering, V domains shown)
VH: B3 VH with Y31F
VL: B3 VL

- ratio of amounts bound vs CE115HA000: 0.85
B27: CE115HA000 N54A (antibody, name in Kabat numbering, V domains shown)
VH: B3 VH with Y31N, N57A
VL: B3 VL

- ratio of amounts bound vs CE115HA000: 0.81
B28: CE115HA000 N31I (antibody, name in Kabat numbering, V domains shown)
VH: B3 VH with Y31I
VL: B3 VL

- ratio of amounts bound vs CE115HA000: 0.32
B31: CE115HA000 K64A (antibody, name in Kabat numbering, V domains shown)
VH: B3 VH with Y31N, K67A
VL: B3 VL
